Results from the supplement of paper PMC9170038.

Tested on: MS2 coat protein
Assay: apparent KD of MS2 coat protein; designed switch direction (-1 OFF switch, 1 ON switch): -1; higher = weaker reporter binding
How it was run: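 Designed RNA switches with common flanks were transcribed on Illumina chips by stalled E. coli RNA polymerase and titrated with SNAP-549-labelled MS2 coat protein, from 0.7 or 1.5 nM doubling to 3 µM, in Tris-HCl pH 7.5 buffer with KCl, MgCl2, BSA, DTT, tRNA and Tween-20. Steps lasted 0.8–1.5 h (lowest) to 10–20 min (highest). Titrations ran without input, with 200 uM small-molecule ligand, or with an oligonucleotide input. Normalised cluster fluorescence was curve-fitted, and apparent KD is the per-design median over clusters.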

[1] = input ligand: microRNA oligo, concentration not stated
[2] = Eterna round: R95, input ligand: FMN 200 uM
[3] = Eterna round: R95, input ligand: microRNA oligo, concentration not stated
[4] = Eterna round: R95, input ligand: none

Sequence	apparent KD of MS2 coat protein (input ligand: FMN 200 uM)	apparent KD of MS2 coat protein (input ligand: none)	apparent KD of MS2 coat protein [1]	apparent KD of MS2 coat protein [2]	apparent KD of MS2 coat protein [3]	apparent KD of MS2 coat protein [4]
GCAGUGUGAGUUAGGAUAUGAUGAUUUUUUAUUGGUCAGAAGGAACUUGAGGAUCACCCAAGUUAGGAAUUGGU [JR_BMEx4_Sub075] (Eterna round: R97, puzzle: Brourd's mod of Exclusion 4)	40.3 nM	33.1 nM	–	–	–	–
ACAUGAGGAUCACCCAUGUAAACAUAAUGGCUGAUGUAGAGUCAGGAUAUGUGUGGCUAACAAUCGCAGAAGGGACAAGACUGG [Deportation 31 - Jieux - Exclusion NG 3] (Eterna round: R96, puzzle: Exclusion NG 3)	23.5 nM	31.8 nM	19.2 nM	–	–	–
UACUUGUUAGGAUAUCUUACAUUUGCAUCAUAGUAACCUUUGGAGAAGGGACAUGAGGAUCACCCAUGUUUGGU [tap-tap-tappy6] (Eterna round: R97, puzzle: Exclusion 4)	49.2 nM	72.6 nM	–	–	–	–
GCAGCAUAGUCGGAAACGACAGAACAUGAGGAUCACCCAUGUCAGGAUAUGGUCUGGAUUACAGGCCAGAAGGGACGAAGCUGC [Eli exng3 - 010] (Eterna round: R96, puzzle: Exclusion NG 3)	13.5 nM	16 nM	11.4 nM	–	–	–
GGUUGGCGAGGAUAUACAUGAGGAUCACCCAUGUGAGAGAAACAAGUGAGGAAGAAAAGUAGAAGGCGCUGACG [salish99_ex3_r3_023] (puzzle: Exclusion 3)	–	–	–	112 nM	88.1 nM	37.1 nM
GUUGCUACUGAGGAUAUUAUUUUACUCGACUGAUAAGAAGGCAGUACAUGAGGAUCACCCAUGUGGGUAGCCAG [Polaris16] (Eterna round: R97, puzzle: Exclusion 6)	64.7 nM	19.3 nM	–	–	–	–
GUACAGGUAGGAUAUCGAUACAAGAACAUGAGGAUCACCCAUGUGGGUCGAUUUUCGAAGCGAGAAGGACCAAAUG [Rixeatenso] (puzzle: Exclusion 5)	–	–	–	406 nM	132 nM	145 nM
UUUAGUUCAGGAUAUGUAGAUUUAAACAUGAGGAUCACCCAUGUAAAUCCUGAUCCUGCUACAGAAGGGAACAUUU [Mat - Exclusion 5 - Eli Mod - D11] (Eterna round: R97, puzzle: Exclusion 5)	16.6 nM	12.7 nM	–	–	–	–
UACGAGUUAGGAUAUGCUUUGGGCUCGCUUUCCUUCGAUAAACUUGAGGAUCACCCAAGUAGAAGGAACUUGUA [Mod 34 - Jieux - Exclusion 2] (Eterna round: R97, puzzle: Exclusion 2)	49.2 nM	29.6 nM	–	–	–	–
UACAUGAGGAUCACCCAUGUUUUGUCGUGUAUGGUAUUUAUCUAGGAUAUCAUUUGAUUUAGUUAUGAGAAGGAGAAUAUUAAU [JMF's solution 86] (Eterna round: R96, puzzle: Exclusion NG 3)	33.6 nM	29.9 nM	17.2 nM	–	–	–
CGAUAAAGGUGAGGAUAUGAGAAUAGAAAGAAAUCAGAAGGCACACAUGAGGAUCACCCAUGUGAGUUCUCGAGAUUACAUGGU [Prohibition 45 - Jieux - Exclusion NG 1] (Eterna round: R96, puzzle: Exclusion NG 1)	–	–	10.8 nM	–	–	–
GCAGACGUAGUGAGGAUAUGCUCUACCUCGGUAGAGCAGAAGGCACAUGAGGAUCACCCAUGUGACUCCUCAUC [Omei Ex4B B18] (Eterna round: R97, puzzle: Brourd's mod of Exclusion 4)	49.2 nM	20.1 nM	–	–	–	–
UCAAAGUCAGGAUAUACAUGAGGAUCACCCAUGUAAAAUUUUAAUUUAAUUUGAAGGUGUAGAAGGGACAAACU [Ex3 #34] (Eterna round: R97, puzzle: Exclusion 3)	39.2 nM	38.8 nM	–	–	–	–
GCGCAGUCAGGAUAUGCCGCUUGCGAUCACCGUUGGCAAAGGCAGAAGGGACAUGAGGAUCACCCAUGUGGCGC [e4e Mirror Pins #3] (puzzle: Exclusion 4)	–	–	–	–	18.1 nM	–
GUGGUGACAGGAUAUACAUGAGGAUCACCCAUGUGAGGAGGACGAGACAGGUGAAGGAGUAGAAGGGUCAGAGA [JR_Exclu3_Sub026] (puzzle: Exclusion 3)	–	–	–	134 nM	61.9 nM	95.6 nM
AAUCCACAUGAGGAUCACCCAUGUGAGGAUAUGAUACUAUGUACUUCGGUACAUAGUAUCAGAAGGCACAUAAA [Ex1-3: 51] (Eterna round: R96, puzzle: Exclusion 1)	153 nM	27.8 nM	25.8 nM	–	–	–
AGUAACCGUCACGAAAGUGAUGGUUACACAAGCAAAUGUACAUGAGGAUCACCCAUGUCCUCAUUUGUUCGUCUUAU [Sensor 3 - 47] (puzzle: Sensor v3, turn-off variant 2)	–	–	–	83.5 nM	390 nM	87.5 nM
CUAACACAUGAGGAUCACCCAUGUGAGGAUAUGCGUACGUUGUCCGUAGGCGACGUGCGCAGAAGGCGCUUGGU [JL-ex1-3.20 Eli mod] (puzzle: Exclusion 1)	–	–	–	–	51.9 nM	–
CUUCUCAGAGGAUAUCACGGUAAUAACAUGAGGAUCACCCAUGUGGAAUUCGUGUCCCUGUGAGAAGGCUGAGAAG [Bezavere] (puzzle: Exclusion 5)	–	–	–	33.2 nM	12.2 nM	16 nM
UCUCACUCAGGAUAUCUUCCGCAUGACAUGAGGAUCACCCAUGUGUGCAUGCCCUUUGGUAGAGAAGGGAGUGAGA [eternacac ex5r4 #5] (Eterna round: R97, puzzle: Exclusion 5)	22.7 nM	24.4 nM	–	–	–	–
UGAGCUUGAGGAUAUACAAGGCGACCGUGAGGUCGAGGUUUACAUGAGGAUCACCCAUGUAGAAGGCAAGUUCU [Mat - Exclusion 2 - JL Mod - D8] (Eterna round: R97, puzzle: Exclusion 2)	41.9 nM	18.5 nM	–	–	–	–
UGAUCUAGGCGAGGAUAUACAUGAGGAUCACCCAUGUAAUGGUGACAUGCGUACAUGUCACCUAUGUAGAAGGCGCCUAGAUCU [JL ENG2 3.55] (Eterna round: R96, puzzle: Exclusion NG 2)	19.6 nM	13 nM	9 nM	–	–	–
GGUAGUAUGAGUAGUCCUCAUUGAAGAGAUUGGUAAGAUACAUGAGGAUCACCCAUGUUUGAACAAGCUUUUGCUCA [JR_Sv3TOV2_Sub006] (puzzle: Sensor v3, turn-off variant 2)	–	–	–	141 nM	53 nM	298 nM
ACAAGUUUUUAGAUUCUUAACAUGAGGAUCACCCAUGUGCUCGUCUUGUUUGUACUAUCACCGCCGGUGAUAGUACA (Eterna round: R97, puzzle: Sensor, turn-off variant 1)	65 nM	81 nM	–	–	–	–
GGUGCUGGCGCGUCGGUGUUGGUGCAAUAAGCUUGUGAGACAUGAGGAUCACCCAUGUCCUCGUGGGCUCGUCUUGU [salish99_TOv2_r2_091] (puzzle: Sensor v3, turn-off variant 2)	–	–	–	91.2 nM	79.3 nM	93.7 nM
